A short description of data set [1]: Storage stability at 50° C. under argon. It is filed as physicochemical. The protocol: The inventive compounds were evaluated for stability. All compounds were packed under argon in plastic vials. The vials sere sealed with a drying pad in an aluminium coated pouch, and then stored at 50° C. for seven days. The results of the stability study for selected compounds are shown below:
Purity was determined based on ester activity.
The inventive compounds were evaluated for stability compared to commercial dyes. All compounds were packed under argon as 1 mg portions in plastic vials. The vials sere sealed with a drying pad in an aluminium coated pouch, and then stored at 50° C. for 14 days. The results of the stability study for selected compounds are shown below:
The inventive compound 755 Compound 1 (isomer 1)-NHS was evaluated for stability. The compound was packed under argon in plastic vials. The vials sere sealed with a drying pad in an aluminium coated pouch, and then stored at 50° C. for 14 days. Purity was determined by HPLC before and after storage.

The target of data set [2] is streptavidin (SA) (Streptomyces avidinii, UniProt P22629). The data set can be described thus: Labeling efficiency (degree of labeling, mole dye to mole protein ratio) of streptavidin. The following applies: for Compound/Protein SA in PBS purified by PDRR / Compound/Protein SA in PBS purified by gel filtration: PBS pH 7.2; for Compound/Protein SA in PBS purified by PDRR / Compound/Protein SA in PBS purified by gel filtration / Compound/Protein SA in borate purified by gel PDRR / Compound/Protein SA in borate purified by gel filtration: molar excess given in the label; for Compound/Protein SA in borate purified by gel PDRR / Compound/Protein SA in borate purified by gel filtration: borate buffer pH 8.5. As to the method: Inventive and commercial compounds, each as the NHS ester, were conjugated to goat anti-mouse (GAM), goat anti-rabbit (GAR) antibodies, and streptavidin (SA). GAM, GAR, and SA, at 10 mg/ml in phosphate buffered saline (PBS), were dialyzed against 50 mM borate buffer, pH 8.5. The compounds were reconstituted in dimethylformamide (DMF) at 10 mg/ml and combined at 2×, 4×, 5×, 7.5×, or 10× molar excess with GAM, GAR, or SA for 2 h at room temperature to label the antibodies or SA.
streptavidin (SA), sequence (P22629 25-183, species assumed): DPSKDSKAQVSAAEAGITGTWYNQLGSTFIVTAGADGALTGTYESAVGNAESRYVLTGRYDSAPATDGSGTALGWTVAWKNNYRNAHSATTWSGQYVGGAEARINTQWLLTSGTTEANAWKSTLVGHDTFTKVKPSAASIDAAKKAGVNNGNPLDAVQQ
The labeled compounds, also termed dyes or labels, were subjected to PDDR to remove the unlabeled (free) compound; 100 μl of the packed resin was used per mg of protein purified. The purified antibody-labeled dyes were then diluted 1:50 in PBS and scanned for absorbance from 700 nm to 230 nm to determine the protein concentration, and to determine the mole dye to mole protein ratio. Each conjugate was diluted 1:10 in 50% glycerol and heated in the presence of 10 mM dithiothreitol (DTT) for 5 min at 95° C., then separated by electrophoresis on polyacrylamide gels in the presence of sodium dodecyl sulfate (SDS-PAGE). The gels were scanned using the Typhoon 9400 Imager to verify removal of the unconjugated compound. Labeling efficiency was compared, with results showing degree of labeling below.
Compounds 1, 2, and 3, each as the NHS ester, and DyLight 649-NHS were conjugated to goat anti-mouse (GAM) and goat anti-rabbit (GAR) antibodies. GAM and GAR, at a concentration of 10 mg/ml in phosphate buffered saline (PBS), were dialyzed against 50 mM borate buffer, pH 8.5. The compounds were reconstituted in dimethylformamide (DMF) at 10 mg/ml. To label the antibodies, the compounds were added at 2.5× molar excess and 5× molar excess for 2 h at room temperature. Streptavidin (SA) was reconstituted in PBS buffer, pH 7.2, and 50 mM borate buffer, pH 8.5, and labeled with 2.5× molar excess and 4× molar excess of the compound.
The antibody-labeled compounds, also termed dyes or labels, were subjected to gel filtration chromatography (15 cm×0.8 cm columns) or to the PDDR to remove the unlabeled (free) compound; 100 μl of the packed resin was used per mg of protein purified. The purified antibody-labeled dyes were then diluted 1:100 in PBS and scanned for absorbance from 700 nm to 230 nm to determine the protein concentration, and to determine the mole dye to mole protein ratio. Each conjugate was diluted 1:10 in 50% glycerol and heated in the presence of 10 mM dithiothreitol (DTT) for 5 min at 95° C., then separated by electrophoresis on polyacrylamide gels in the presence of sodium dodecyl sulfate (SDS-PAGE). The gels were scanned using the Typhoon 9400 Imager to verify removal of the unconjugated compound. Labeling efficiency was compared using labeling of the compounds to GAM antibody at a 2.5× molar excess of compound, with results shown below.
Labeling efficiency was also compared using labeling of the dyes to streptavidin (SA) at either a 2.5 fold or a 4 fold molar excess of the dye, with SA in PBS, pH 7.2, and borate buffer, pH 8.5.
650 Compound 1 (isomer 2)-TFP, 650 Compound 1 (isomer 1)-TFP, 650 Compound 1 (isomer 2)-TFP, 650 Compound 1-NHS, and DyLight 649-NHS were conjugated to GAM, GAR, and SA. GAM and GAR, at a concentration of 10 mg/ml in phosphate buffered saline (PBS), were dialyzed against 50 mM borate buffer, pH 8.5. The compounds were reconstituted in dimethylformamide (DMF) at 10 mg/ml and used to label antibodies at 5× molar excess of compound for two hours at room temperature to label the antibodies. SA was reconstituted in 50 mM borate buffer, pH 8.5, and combined with 4× molar excess to label the SA.
The antibody-conjugated and SA-conjugated compounds, also termed dyes or labels, were subjected to the PDDR to remove the unlabeled (free) compound. The purified antibodies and SA were then diluted 1:25 in PBS and scanned for absorbance from 700 nm to 230 nm to determine the protein concentration, and to determine the mole dye to mole protein ratio. […]

For data set [3], the system named is U2OS cells; A550 cells. The data set can be described thus: Immunofluorescence cell based assays, summary statements. Also noted: species or system human. The following applies: GAM and GAR conjugates. The protocol:
The inventive compounds and commercial dye were evaluated for immunofluorescence in cell based assays using the following protocol. Plates containing U2OS cells (human osteosarcoma cell line) were fixed in 4% paraformaldehyde in PBS/0.1% Triton X-100 for 15 min at room temperature. The cells were then permeabilized with 2% BSA in PBS/0.1% Triton X-100 for 30 min at room temperature. Diluted primary antibodies in PBS/0.1% Triton X-100 were added to the plates and incubated overnight at 4° C. The plates were washed 3×100 μl with PBS. Based on the calculated protein concentrations, the conjugates were diluted to 4 μg/ml (1:250 from 1 mg/ml stock) in PBS/0.1% Triton X-100 and added to the plates (50 μl/well) and incubated 1 h in the dark at room temperature. The plates were washed 3×100 μl with PBS. One hundred μl of 2 μg/ml Hoechst dye in PBS was added per well. The plates were then scanned on an ArrayScan® Plate Reader for imaging and quantitation.
The inventive compounds and commercial dyes were evaluated for immunofluorescence in cell based assays using the following protocol. Plates containing A550 cells (adenocarcinoma human alveolar basal epithelial cells, P5, Sep. 23, 2010) and stored at −80° C. were placed at 50° C. for 30 min. The storage buffer (PBS) was removed and then the cells were permeabilized for 15 min (100 μl/well) with 0.1% Triton-X100 in 1×PBS buffer. The plates were blocked for 30 min in 2% BSA in 1×PBS-0.1% Triton-X100 and then incubated with primary antibodies diluted in 2% BSA in 1×PBS, 0.1% Trion-X100, overnight at 4° C. […] The remaining wells were incubated in blocking buffer only (no primary antibody). After overnight incubation, the antibody solution was removed from the wells, and the plates were washed with PBS-Tween (2×100 μl/well). The labeled secondary antibody conjugates, diluted to 4 μg/ml in PBS were added to corresponding wells and incubated for 1 h at room temperature (about 20° C. to about 22° C.). The plates were washed 3×100 μl/well with PBS and Hoechst stain diluted 1 μg/ml in PBS were added to each well (100 μl/well) of each plate. The plates were then scanned on the Thermo Scientific ArrayScan® HCS Reader for imaging and quantitation.

Data set [4] in a line: Spectral properties of the dyes compared with commercially available dyes. It is filed as physicochemical. The following applies: reactive ester form of the dye.
Where [5] appears, read: unit size 1 mg, 50° C. for seven days, purity based on ester activity.
Where [6] appears, read: amount 1 mg, 50° C. for 14 days (650 series).

As to `COCCN1/C(=C/C=C/C2=[N+](CCCCCC(=O)Oc3c(F)c(F)cc(F)c3F)c3ccc(S(=O)(=O)[O-])cc3C2(C)CCCS(=O)(=O)O)C(C)(CCCS(=O)(=O)O)c2cc(S(=O)(=O)O)ccc21` (single isomer, unassigned) [550 Compound 1 (isomer 1)-TFP], in data set [1] (setting [5]), the “Purity at day 1” value is recorded as 97% and the “Purity at day 7” value was 96%.

For the molecule `COCCN1/C(=C/C=C/C2=[N+](CCCCCC(=O)NCCN3C(=O)C=CC3=O)c3ccc(S(=O)(=O)[O-])cc3C2(C)CCCS(=O)(=O)O)C(C)(CCCS(=O)(=O)O)c2cc(S(=O)(=O)O)ccc21` (single isomer, unassigned) [550 Compound 1(isomer 1)-maleimide], in data set [1] (setting [5]), the “Purity at day 1” value is 99% and the “Purity at day 7” value is 97%.

On to `COCCN1/C(=C/C=C/C2=[N+](CCCCCC(=O)NCCN3C(=O)C=CC3=O)c3ccc(S(=O)(=O)[O-])cc3C2(C)CCCS(=O)(=O)O)C(C)(CCCS(=O)(=O)O)c2cc(S(=O)(=O)O)ccc21` (single isomer, unassigned) [550 Compound 1(isomer 2)-maleimide], for which, in data set [1] (setting [5]), the “Purity at day 1” value stood at 98% and the “Purity at day 7” value turned out to be 97%.

On to `COCCN1/C(=C/C=C/C=C/C2=[N+](CCCCCC(=O)Oc3c(F)c(F)cc(F)c3F)c3ccc(S(=O)(=O)[O-])cc3C2(C)CCCS(=O)(=O)O)C(C)(CCCS(=O)(=O)O)c2cc(S(=O)(=O)O)ccc21` (single isomer, unassigned) [650 Compound 1 (isomer 2)-TFP], for which, in data set [2] (TFP or NHS ester, 4X molar excess, borate buffer pH 8.5, PDRR), the “SA (4X) Average (mole dye to mole protein ratio)” value came out at 2.42.

With `COCCN1/C(=C/C=C/C2=[N+](CCCCCC(=O)O)c3ccc(S(=O)(=O)[O-])cc3C2(C)CCCS(=O)(=O)O)C(C)(CCCS(=O)(=O)O)c2cc(S(=O)(=O)O)ccc21` (stereo not shown) [550 Compound 1, 2-{(E)-3-[1-(5-carboxypentyl)-3-methyl-5-sulfo-3-(3-sulfopropyl)-1,3-dihydro-indol-(2E)-ylidene]-propenyl}-1-(2-methoxy-ethyl)-3-methyl-5-sulfo-3-(3-sulfo-propyl)-3H-indolium], in data set [3], the “Immunofluorescence performance of conjugates compared with commercial DyLight dye” value is “at least similar performance to DyLight 549 conjugates (GAM, GAR), and in some cases superior performance”.

Consider `COCCN1/C(=C/C=C/C=C/C2=[N+](CCCCCC(=O)Oc3c(F)c(F)cc(F)c3F)c3ccc(S(=O)(=O)[O-])cc3C2(C)CCCS(=O)(=O)O)C(C)(CCCS(=O)(=O)O)c2cc(S(=O)(=O)O)ccc21` (stereo not shown) [650 Compound 1-TFP], for which, in data set [4], the “Emission (Em)” value came out at 672 nm, the “Excitation (Ex)” value turned out to be 654 nm and the ε was 250,000 M−1cm−1. In addition, in data set [1] (setting [6]), the “Purity at day 1” value is recorded as 98% and the “Purity at day 14” value is 97%.

Consider “Alexa 647-SA-(2.5X): Alexa 647 conjugated to streptavidin (SA) [reference compound]”, for which, in data set [2], the “Compound/Protein SA in PBS purified by PDRR” value (“Compound/Protein SA … by PDRR” for short) is 3.5, the “Compound/Protein SA in PBS purified by gel filtration” value is 3.9, the “Compound/Protein SA in borate purified by gel PDRR” value (from here on “Compound/Protein SA … by gel PDRR”) was found to be 2.4 and the “Compound/Protein SA in borate purified by gel filtration” value came out at 2.6. Moreover, in data set [2] (listed as Alexa647-SA-4X), the “Compound/Protein SA … by gel PDRR” value worked out at 3.4 and the “Compound/Protein SA in borate purified by gel filtration” value is recorded as 3.9.

Turning to “Cy5-SA (2.5X): Cy5 conjugated to streptavidin (SA) [reference compound]”, in data set [2], the “Compound/Protein SA … by PDRR” value is 3.8, the “Compound/Protein SA in PBS purified by gel filtration” value stood at 4.2, the “Compound/Protein SA … by gel PDRR” value came to 2.0 and the “Compound/Protein SA in borate purified by gel filtration” value came to 2.3. In data set [2] (listed as Cy5-SA-4X), the “Compound/Protein SA … by gel PDRR” value amounted to 3.3 and the “Compound/Protein SA in borate purified by gel filtration” value stood at 3.8.

Take “DyLight 649-SA (2.5X): DyLight 649 conjugated to streptavidin (SA); suffix gives molar excess of dye [reference compound]”: in data set [2], the “Compound/Protein SA … by PDRR” value turned out to be 2.6, the “Compound/Protein SA in PBS purified by gel filtration” value amounted to 3.5, the “Compound/Protein SA … by gel PDRR” value worked out at 2.2 and the “Compound/Protein SA in borate purified by gel filtration” value came to 2.3. In data set [2] (listed as DyLight 649-SA-4X), the “Compound/Protein SA … by gel PDRR” value is 2.9 and the “Compound/Protein SA in borate purified by gel filtration” value worked out at 3.5.

The values are drawn from patent publication US10053447B2, “Fluorescent compounds” (Pierce Biotechnology, Inc, priority 2010, dated 2018).
